Results: patent US20220403022A1

Molecular target: human TIGIT on cells (primary T cells, transfected HEK293 cells, Jurkat reporter cells, NK cells) (human) (UniProt Q495A1)
Experiment: cell-based or functional assay

Chain of human TIGIT on cells (primary T cells, transfected HEK293 cells, Jurkat reporter cells, NK cells) (human) (Q495A1 22-244 limits assumed): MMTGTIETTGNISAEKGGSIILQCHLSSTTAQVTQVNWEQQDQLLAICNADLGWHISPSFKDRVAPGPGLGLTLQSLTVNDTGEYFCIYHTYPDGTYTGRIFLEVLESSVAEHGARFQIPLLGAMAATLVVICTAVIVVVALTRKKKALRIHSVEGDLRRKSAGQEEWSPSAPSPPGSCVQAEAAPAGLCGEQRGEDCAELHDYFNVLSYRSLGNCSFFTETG

Q: Which Max RLU (potency) does the source give for Isotype control (antibody) here?
A: Its Max RLU (potency) is 575 RLU.
